Measured values taken from article PMC5378893 (Scientific Reports, 2015).

What follows are binders tested against T1, extracellular domain (ECD) of human epidermal growth factor receptor 2 (HER2) (Homo sapiens, UniProt P04626) (assay: SPR; BIAcore T200; HER2/ECD immobilised on a CM5 chip by amine coupling to 1000 RU; IgG flowed in PBST (0.05% Tween 20) at 30 uL/min; regeneration 10 mM glycine pH 1.5; global fit to a 1:1 binding model). Conditions: both partners purified.
T1 construct: human epidermal growth factor receptor 2 (HER2), extracellular domain; also called HER2/ECD

Binder	Kd	koff	kon
GH2-3 IgG (antibody, V domains shown, source: HEK293-F, transient transfection, purified (Protein A, Superdex 200)) VH: EVQLVESGGGLVQPGGSLRLSCAASGFTISGGWIHWVRQAPGKGLEWVAGIWPSGGSTSYADSVKGRFTISADTSKNTAYLQMNSLRAEDTAVYYCARFYFGFGDLMDYWGQGTLVTVSS VL: DIQMTQSPSSLSASVGDRVTITCRASQDVNNNVAWYQQKPGKAPKLLIYGARYLYSGVPSRFSGSGSGTDFTLTISSLQPEDFATYYCQQFGGGPLTFGQGTKVEIK	2.07 nM	0.000502 s⁻¹	242000 M⁻¹ s⁻¹
GH2-16 IgG (antibody, V domains shown, source: HEK293-F, transient transfection, purified (Protein A, Superdex 200)) VH: EVQLVESGGGLVQPGGSLRLSCAASGFTINNWGIHWVRQAPGKGLEWVAGIWPFGGYTYYADSVKGRFTISADTSKNTAYLQMNSLRAEDTAVYYCARFDYLNNGGMDYWGQGTLVTVSS VL: DIQMTQSPSSLSASVGDRVTITCRASQDVYSSVAWYQQKPGKAPKLLISYTSYLYSGVPSRFSGSGSGTDFTLTISSLQPEDFATYYCQQYYGGPMTFGQGTKVEIK	1.2 nM	0.000102 s⁻¹	85700 M⁻¹ s⁻¹
GH2-23 IgG (antibody, V domains shown, source: HEK293-F, transient transfection, purified (Protein A, Superdex 200)) VH: EVQLVESGGGLVQPGGSLRLSCAASGFTINGGGIHWVRQAPGKGLEWVAFIGPFGGSTFYADSVKGRFTISADTSKNTAYLQMNSLRAEDTAVYYCARFFGGNIHVMDYWGQGTLVTVSS VL: DIQMTQSPSSLSASVGDRVTITCRASQDVFWGVAWYQQKPGKAPKLLISWSASLYSGVPSRFSGSGSGTDFTLTISSLQPEDFATYYCQQYFSFPFTFGQGTKVEIK	0.827 nM	0.00018 s⁻¹	217000 M⁻¹ s⁻¹
M62 IgG (mouse anti-HER2/ECD) (antibody, V domains shown, mouse VL; L49~L53 HSASY; L91~L96 YNSYPL; mouse VH; H50~H58 EIYPGGGNPY; H96~H100B YKYDVS; recombinant IgG from a scFv of an immunized mouse's phage library; source: HEK293-F, transient transfection, purified (Protein A, Superdex 200)) VH: EVQLQQSGTELARPGASVKLSCKASGYTFIDYYITWVKQRTGQGLEWIGEIYPGGGNPYYNDNFKGKASLTADKSSNTVYMQLSSLTSEDSAVYFCARSYKYDVSVYWGQGTLVTVSA VL: DIQMIQSQKFMSTSVGDRVSVTCKASQNVGTNVAWYQQKPGQSPKALIHSASYRYSGVPDRFTGSGSGTDFTLTISNVQSEDLAEYFCQQYNSYPLTFGAGTKLEIK	0.0228 nM	1.8e-05 s⁻¹	788000 M⁻¹ s⁻¹
M41 IgG (mouse anti-HER2/ECD) (antibody, V domains shown, mouse VL; L49~L53 YYTSG; L91~L96 VNTLPY; mouse VH; H50~H58 NFHPYNDYTN; H96~H100B HDGYYGA; recombinant IgG from a scFv of an immunized mouse's phage library; source: HEK293-F, transient transfection, purified (Protein A, Superdex 200)) VH: EVQLQQSGAELVKPGASVKMSCKAFGYTFTTYPIEWMKQNHGKSLEWIGNFHPYNDYTNYNEKFKGKAKLTVEKSSTTVYLELSRLTSDDSAVYYCARRHDGYYGAMDYWGQGTSVTVSS VL: DIQMTQTTSSLSASLGDRVTISCRTSQDISNYLNWYQQKPNGTIKLLIYYTSGLYSGVPSRFSGSGSGADYSLTISNVEQEDIATYFCQQVNTLPYTFGGGTKLELK	0.0519 nM	3.48e-05 s⁻¹	671000 M⁻¹ s⁻¹
M61 IgG (mouse anti-HER2/ECD) (antibody, V domains shown, mouse VL; L49~L53 YNAKT; L91~L96 HYGTPY; mouse VH; H50~H58 NFHPYNDDTK; H96~H100B NDGYYGA; recombinant IgG from a scFv of an immunized mouse's phage library; source: HEK293-F, transient transfection, purified (Protein A, Superdex 200)) VH: EVQLQQSGAELVKPGASVKMSCKAFGYTFTTYPIEWMKQNHGKSLEWIGNFHPYNDDTKYNEKFKGKAKLTVEKSSSTVYLELSRLTSDDSAVYYCARRNDGYYGAMDYWGQGTSVTVSS VL: DIKITQSPASLSASVGETVTITCRASENIYSYLAWYQQKQGKSPQLLVYNAKTLAEGVPSRFSGSGSGTQFSLKINSLQPEDFGSYYCQHHYGTPYTFGGGTKLELK	0.591 nM	0.0024 s⁻¹	4.06e+06 M⁻¹ s⁻¹
M32 IgG (mouse anti-HER2/ECD) (antibody, V domains shown, mouse VL; L49~L53 YSASN; L91~L96 YSSYPL; mouse VH; H50~H58 WIDPENGNTI; H96~H100B YYGSRVL; recombinant IgG from a scFv of an immunized mouse's phage library; source: HEK293-F, transient transfection, purified (Protein A, Superdex 200)) VH: EVQLVESGAELVRPGALVKLSCKASGFNIKDYFMYWVKQRPEQGLEWVGWIDPENGNTIYDPKFQGKASITADTSSNTAYLQLSSLTSEDTAVYYCTRGYYGSRVLAMDYWGQGTSVTVSS VL: GIELTQSQKFMSTSVGDRVSITCKASQNVGTAVAWYQQKPGQSPKLLIYSASNRYTGVPDRFTGSGSGTDFTLTISNMQSEDLADYFCQQYSSYPLAFGGGTKLEIK	0.243 nM	7.15e-05 s⁻¹	294000 M⁻¹ s⁻¹
GH2-8 IgG (antibody, V domains shown, source: HEK293-F, transient transfection, purified (Protein A, Superdex 200)) VH: GVQLVESGGGLVQPGGSLRLSCAASGFTIGSSGIHWVRQAPGKGLEWVAGIWPYWGSTYYADSVKGRFTISADTSKNTAYLQMNSLRAEDTAVYYCARFGVGYHYYMDYWGQGTLVTVSS VL: DIQMTQSPSSLSASVGDRVTITCRASQDVGWWVAWYQQKPGKAPKLLISGATGLYSGVPSRFSGSGSGTDFTLTISSLQPEDFATYYCQQSWDSPITFGQGTKVEIK	0.259 nM	0.000155 s⁻¹	599000 M⁻¹ s⁻¹
GH2-96 IgG (antibody, V domains shown, source: HEK293-F, transient transfection, purified (Protein A, Superdex 200)) VH: EVQLVESGGGLVQPGGSLRLSCAASGFTISGYGIHWVRQAPGKGLEWVAGIGPFWGYTFYADSVKGRFTISADTSKNTAYLQMNSLRAEDTAVYYCARFGHIVDGLMDYWGQGTLVTVSS VL: DIQMTQSPSSLSASVGDRVTITCRASQDVNGGVAWYQQKPGKAPKLLIYGSSWLYSGVPSRFSGSGSGTDFTLTISSLQPEDFATYYCQQYFDWPITFGQGTKVEIK	5.42 nM	0.00137 s⁻¹	254000 M⁻¹ s⁻¹
GH2-18 IgG (antibody, V domains shown, source: HEK293-F, transient transfection, purified (Protein A, Superdex 200)) VH: EVQLVESGGGLVQPGGSLRLSCAASGFTISNWGIHWVRQAPGKGLEWVAGIWPYGGYTFYADSVKGRFTISADTSKNTAYLQMNSLRAEDTAVYYCARFNYLNLGGMDYWGQGTLVTVSS VL: DIQMTQSPSSLSASVGDRVTITCRASQDVNSNVAWYQQKPGKAPKLLIYWTTGLYSGVPSRFSGSGSGTDFTLTISSLQPEDFATYYCQQYLSGPITFGQGTKVEIK	0.0695 nM	1.09e-05 s⁻¹	156000 M⁻¹ s⁻¹
GH2-14 IgG (antibody, V domains shown, source: HEK293-F, transient transfection, purified (Protein A, Superdex 200)) VH: EVQLVESGGGLVQPGGSLRLSCAASGFTINDHGIHWVRQAPGKGLEWVAGIGPFGGYTSYADSVKGRFTISADTSKNTAYLQMNSLRAEDTAVYYCARFNFNDVGGMDYWGQGTLVTVSS VL: DIQMTQSPSSLSASVGDRVTITCRASQDVGGGVAWYQQKPGKAPKLLISGPPYLYSGVPSRFSGSGSGTDFTLTISSLQPEDFATYYCQQYFNYPITFGQGTKVEIK	17 nM	0.00573 s⁻¹	336000 M⁻¹ s⁻¹
GH2-21 IgG (antibody, V domains shown, source: HEK293-F, transient transfection, purified (Protein A, Superdex 200)) VH: EVQLVESGGGLVQPGGSLRLSCAASGFTINDYSIHWVRQAPGKGLEWVASIWPFGGSTSYADSVKGRFTISADTSKNTAYLQMNSLRAEDTAVYYCARFNYWIGIIMDYWGQGTLVTVSS VL: DIQMTQSPSSLSASVGDRVTITCRASQDVSDNVAWYQQKPGKAPKLLIYWATGLYSGVPSRFSGSGSGTDFTLTISSLQPEDFATYYCQQYYGFPLTFGQGTKVEIK	1.4 nM	0.000623 s⁻¹	444000 M⁻¹ s⁻¹
GH2-13 IgG (antibody, V domains shown, source: HEK293-F, transient transfection, purified (Protein A, Superdex 200)) VH: EVQLVESGGGLVQPGGSLRLSCAASGFTISDGGIHWVRQAPGKGLEWVAGIWPYWGYTSYADSVKGRFTISADTSKNTAYLQMNSLRAEDTAVYYCARFDNNWVGNMDYWGQGTLVTVSS VL: DIQMTQSPSSLSASVGDRVTITCRASQDVYFGVAWYQQKPGKAPKLLISGTTSLYSGVPSRFSGSGSGTDFTLTISSLQPEDFATYYCQQYGSYPITFGQGTKVEIK	2.64 nM	0.00818 s⁻¹	3.1e+06 M⁻¹ s⁻¹
GH2-102 IgG (antibody, V domains shown, source: HEK293-F, transient transfection, purified (Protein A, Superdex 200)) VH: EVQLVESGGGLVQPGGSLRLSCAASGFTINGGGIHWVRQAPGKGLEWVASIGPYGGYTSYADSVKGRFTISADTSKNTAYLQMNSLRAGDTAVYYCARFGHHYDGHMDYWGQGTLVTVSS VL: DIQMTQSPSSLSASVGDRVTITCRASQDVGSNVAWYQQKPGKAPKLLIYGAPYLYSGVPSRFSGSGSGTDFTLTISSLQPEDFATYYCQQYYNWPLTFGQGTKVEIK	28.4 nM	0.039 s⁻¹	1.37e+06 M⁻¹ s⁻¹
M64 IgG (mouse anti-HER2/ECD) (antibody, V domains shown, mouse VL; L49~L53 YWAST; L91~L96 HYSTPY; mouse VH; H50~H58 RIDPANGNTK; H96~H100B YRGAM; recombinant IgG from a scFv of an immunized mouse's phage library; source: HEK293-F, transient transfection, purified (Protein A, Superdex 200)) VH: EVQLQQSGAELVKPGASVKLSCTASGFNIKNTYMHWVKQRPEQGLEWIGRIDPANGNTKYDPKLQGKATITADTSSNTAYLHLSSLTSEDTAVYYCVPYYRGAMDYWGQGTSVTVSS VL: DIQMNQSHKFMSTSVGDRVSITCKASQDVSTAVAWYQQKPGQSPKLLIYWASTRHTGVPGRFTGSGSGADYTLTISSVQAEDLALYYCQQHYSTPYTFGGGTKLEIK	0.195 nM	0.000337 s⁻¹	1.74e+06 M⁻¹ s⁻¹
GH2-95 IgG (antibody, V domains shown, source: HEK293-F, transient transfection, purified (Protein A, Superdex 200)) VH: EVQLVESGGGLVQPGGSLRLSCAASGFTIDSWGIHWVRQAPGKGLEWVAGIGPFWGYTSYADSVKGRFTISADTSKNTAYLQMNSLRAEDTAVYYCARFGIHFDGIMDYWGQGTLVTVSS VL: DIQMTQSPSSLSASVGDRVTITCRASQDVSGGVAWYQQKPGKAPKLLIFGSTWLYSGVPLRFSGSGSGTDFTLTISSLQPEDFATYYCQQYYDWPLTFGQGTKVEIK	4.47 nM	0.000244 s⁻¹	54700 M⁻¹ s⁻¹
GH2-104 IgG (antibody, V domains shown, source: HEK293-F, transient transfection, purified (Protein A, Superdex 200)) VH: EVQLVESGGGLVQPGGSLRLSCAASGFTIDSWGIHWVRQAPGKGLEWVAGIGPFGGYTSYADSVKGRFTISADTSKNTAYLQMNSLRAEDTAVYYCARFGDYIDGVMDYWGQGTLVTVSS VL: DIQMTQSPSSLSASVGDRVTITCRASQDVNSNVAWYQQKPGKAPKLLIYGSPSLYSGVPSRFSGSGSGTDFTLTISSLQPEDFATYYCQQYYDWPLTFGQGTKVEIK	1.04 nM	0.000884 s⁻¹	852000 M⁻¹ s⁻¹
GH2-98 IgG (antibody, V domains shown, source: HEK293-F, transient transfection, purified (Protein A, Superdex 200)) VH: EVQLVESGGGLVQPGGSLRLSCAASGFTINNYGIHWVRQAPGKGLEWVAGIGPSWGFTYYADSVKGRFTISADTSKNTAYLQMNSLRAEDTAVYYCARFGFYNDGFMDYWGQGTLVTVSS VL: DIQMTQSPSSLSASVGDRVTITCRASQDVGSGVAWYQQKPGKAPKLLIYFSASLYSGVPSRFSGSGSGTDFTLTISSLQPEDFATYYCQQYYNWPLTFGQGTKVEIK	88.5 nM	0.0224 s⁻¹	254000 M⁻¹ s⁻¹
GH2-36 IgG (antibody, V domains shown, source: HEK293-F, transient transfection, purified (Protein A, Superdex 200)) VH: EVQLVESGGGLVQPGGSLRLSCAASGFTIGGGGIHWVRQAPGKGLEWVAYIGPYGGYTSYADSVKGRFTISADTSKNTAYLQMNSLRAEDTAVYYCARFHDHIGGIMDYWGQGTLVTVSS VL: DIQMTQSPSSLSASVGDRVTITCRASQDVNSNVAWYQQEPGKAPKLLIYFSSGLYSGVPSRFSGSGSGTDFTLTISSLQPEDFATYYCQQYYNWPLTFGQGTKVEIK	8.85 nM	7.7 s⁻¹	8.68e+08 M⁻¹ s⁻¹
